Data taken from patent WO2019109974A1 (dated 2019).

B1: 嵌合抗体1(Chi1) chimeric antibody 1 (antibody, human IgG1, kappa, V domains shown)
VH: EVQLQESGPGLAKPSQTLSLTCSVTGYSITSDYWNWIRRFPGNKLEYMGYISYTGSTYYNPSLKSRISITRDTSKNQYYLQLKSVTTEDTATYYCARGEAWDRRTLDCWGQGTSVTVSS
VL: DFQMTQTTSSLSASLGDRVTISCRASQDITNYLNWYQQKPDGTVKLLIYYTSRLHSGVPSRFSGSGSGSDYALTISNLEQEDIATYFCQQVYTLPWTFGRGTKLEIKR
notes: expressed in ExpiCHO; also called 母本嵌合抗体
B2: 嵌合抗体2-1(Chi2-1) chimeric antibody 2-1 (antibody, human IgG1, kappa, V domains shown)
VH: QVQLQQPGAELVRPGASVKLSCKASGYSFTFYWMNWVKQRPGQGLEWIGMIHPSDSETRLNQKFKDKATLTVDKSSSTAYMQLSSPTSEDTAVYYCVRNMVWSRQVMDYWGQGTSVTVSS
VL: DVVMTQTPLTLSVTIGQPASISCKSSQSLLDSDGNTYLNWLLQRPGESPKLLLYLVSKLDSGVPDRFTGSGSGTDFTLKIGRVEAADLGVYYCLQSTHFPYTFGGGTKLEIKR
notes: Mouse variable regions joined to human IgG1 and human kappa constant regions
B3: 嵌合抗体Chi2-2 chimeric antibody Chi2-2 (antibody, human IgG1, kappa, V domains shown)
VH: QVQLQQPGAELVRPGASVNLSCKTSGYSFTSYWMNWVKQRPGQGLEWIGMIHPSDSETWLNQKFKDKATLTVDKSSSTVHMQLSSPTSEDSAVFYCVRSMVWTRHVMDYWGQGTSVTVSS
VL: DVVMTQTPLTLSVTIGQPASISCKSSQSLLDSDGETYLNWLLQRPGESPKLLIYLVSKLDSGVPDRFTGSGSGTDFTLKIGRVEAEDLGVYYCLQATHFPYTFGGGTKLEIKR
notes: as for B2
B4: hu-Chi1-3.4 (antibody, human IgG1, kappa, V domains shown)
VH: QVQLQESGPGLVKPSQTLSLTCTVSGYSITSDYWNWIRQHPGKGLEYIGYISYTGSTYYNPSLKSRVTISRDTSKNQFSLKLSSVTAADTAVYYCARGEAWDRRTLDYWGQGTLVTVSS
VL: DFQMTQSPSSLSASVGDRVTITCRASQDITNYLNWYQQKPDKAVKLLIYYTSRLHSGVPSRFSGSGSGTDFTLTISSLQPEDFATYYCQQVYTLPWTFGQGTKLEIKR
notes: also called Chi1_VH.1D / Chi1_VL.1C

Key:
[1] = target: T1, hPD-L1(ECD)-mFc (human); assay: ELISA, hPD-L1-mFc coated
T1 construct: Human PD-L1 extracellular domain fused to a mouse antibody heavy chain Fc tag; also called hPD-L1-mFc; PD-L1-mFc

[2] = target: PD-L1抗原 (PD-L1 antigen coated in detection method 1.2) (human, UniProt Q9NZQ7 19-238, limits assumed); assay: competition ELISA: PD-L1 antigen coated, competitor biotin PD-1-mFc
[3] = target: T2, PD-L1 on U2OS cells stably expressing PD-L1 (UniProt Q9NZQ7 19-290, limits assumed); assay: flow cytometry on PD-L1-U2OS cells, competitor biotin PD-1 protein, MFI
T2 construct: whole, on cells; also called PD-L1-U2OS; U2OS PD-L1细胞

[4] = target: T3, 人PD-L1抗原 (hPD-L1-his, Sino biological 10084-H08H-200) (human, UniProt Q9NZQ7 19-239); assay: SPR (Biacore T200), antibody captured by anti-human antibody on CM5, PD-L1-his as analyte, 1:1 Langmuir fit
T3 construct: Bought analyte of the Biacore assay; also called human PD-L1 antigen
T3 sequence (Q9NZQ7 19-239 limits assumed): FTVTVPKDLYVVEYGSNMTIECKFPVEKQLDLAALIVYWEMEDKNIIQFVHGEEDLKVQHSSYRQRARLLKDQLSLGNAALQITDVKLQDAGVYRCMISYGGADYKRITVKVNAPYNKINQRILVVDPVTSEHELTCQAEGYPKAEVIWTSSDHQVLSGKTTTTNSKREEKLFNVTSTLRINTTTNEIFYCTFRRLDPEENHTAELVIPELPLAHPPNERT

Chain of PD-L1抗原 (PD-L1 antigen coated in detection method 1.2) (Q9NZQ7 19-238 limits assumed): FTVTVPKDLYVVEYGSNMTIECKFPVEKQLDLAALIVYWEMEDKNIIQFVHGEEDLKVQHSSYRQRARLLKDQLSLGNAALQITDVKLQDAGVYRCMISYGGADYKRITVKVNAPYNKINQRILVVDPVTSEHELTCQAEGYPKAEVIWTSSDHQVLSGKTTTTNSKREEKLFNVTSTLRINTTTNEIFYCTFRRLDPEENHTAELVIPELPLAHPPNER
T2 sequence (Q9NZQ7 19-290 limits assumed): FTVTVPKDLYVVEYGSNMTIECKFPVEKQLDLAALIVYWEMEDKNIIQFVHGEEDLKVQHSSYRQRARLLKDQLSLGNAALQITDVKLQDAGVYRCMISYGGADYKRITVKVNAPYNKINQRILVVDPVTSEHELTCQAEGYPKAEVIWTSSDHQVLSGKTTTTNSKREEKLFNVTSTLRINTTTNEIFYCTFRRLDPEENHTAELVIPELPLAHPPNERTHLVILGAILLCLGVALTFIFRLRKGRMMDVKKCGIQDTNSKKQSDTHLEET
T1 sequence (chain, as listed by the source limits assumed): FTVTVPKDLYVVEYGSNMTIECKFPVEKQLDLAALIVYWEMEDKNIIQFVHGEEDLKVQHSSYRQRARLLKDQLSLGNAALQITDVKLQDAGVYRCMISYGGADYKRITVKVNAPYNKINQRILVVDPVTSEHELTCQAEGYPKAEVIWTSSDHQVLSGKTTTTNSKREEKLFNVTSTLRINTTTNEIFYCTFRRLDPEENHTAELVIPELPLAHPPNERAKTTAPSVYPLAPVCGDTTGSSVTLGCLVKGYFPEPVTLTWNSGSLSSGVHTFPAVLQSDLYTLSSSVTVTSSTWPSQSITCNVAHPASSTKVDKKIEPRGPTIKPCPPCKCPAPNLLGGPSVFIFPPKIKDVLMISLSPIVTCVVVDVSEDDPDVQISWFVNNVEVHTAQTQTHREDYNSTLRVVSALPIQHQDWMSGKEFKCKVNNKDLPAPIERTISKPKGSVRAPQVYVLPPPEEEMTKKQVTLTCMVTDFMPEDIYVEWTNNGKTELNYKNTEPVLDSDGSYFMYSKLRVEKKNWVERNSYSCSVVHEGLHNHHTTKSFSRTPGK

| Binder | EC50 [1] | IC50 [2] | IC50 [3] | Kd [4] |
| --- | --- | --- | --- | --- |
| B1 | 0.107 µg/mL | 0.514 µg/mL | 0.195 µg/mL | 0.674 nM |
| B2 | 0.145 µg/mL | 0.462 µg/mL | 0.248 µg/mL |  |
| B3 |  | 1.44 µg/mL | 2.17 µg/mL |  |
| B4 |  |  |  | 0.799 nM |
